# T1: huCLL1-K244-Avi-Tev-His (human, UniProt Q5QGZ9 65-265)
# T1 construct: extracellular domain
# T1 sequence (looked up): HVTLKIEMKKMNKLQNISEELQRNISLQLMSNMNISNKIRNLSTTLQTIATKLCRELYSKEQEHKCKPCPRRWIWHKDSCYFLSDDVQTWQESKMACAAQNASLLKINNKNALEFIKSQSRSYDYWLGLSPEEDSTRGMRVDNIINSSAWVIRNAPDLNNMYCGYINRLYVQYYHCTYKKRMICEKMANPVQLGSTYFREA
# T2: huCLL1-Q244-Avi-Tev-His (human, UniProt Q5QGZ9 65-265)
# T2 construct: extracellular domain; also called CLL-1 K244Q
# T2 sequence (looked up): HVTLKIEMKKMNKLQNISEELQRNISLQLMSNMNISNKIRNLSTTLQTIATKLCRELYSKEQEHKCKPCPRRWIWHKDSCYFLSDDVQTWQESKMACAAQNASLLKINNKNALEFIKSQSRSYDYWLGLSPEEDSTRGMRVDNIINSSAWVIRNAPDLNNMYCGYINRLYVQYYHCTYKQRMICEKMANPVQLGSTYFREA
# Legend:
# [1] = biological target: T3, huFLT3-T227 stably expressed on Ramos cells (human, UniProt P36888 27-993); assay: FACS on cells
# T3 construct: whole, on cells; also called FLT3 WT
# Experimental: (§1) For FLT3, Ramos cells were engineered to stably express either the huFLT3-T227 or huFLT3-M227 variant at >200,000 receptors per cell. Parental, huFLT3-T227, and huFLT3-M227 Ramos cell lines were stained with differing levels of CellTrace Violet Cell Proliferation Kit (ThermoFisher, cat. #C34557) to barcode each cell line. Barcoded Ramos cell lines were fixed with paraformaldehyde and incubated with myc-labeled scFv periplasmic extracts and a secondary anti-myc PE-conjugated monoclonal antibody. Appropriate positive and negative controls were used. Stained cells were analyzed by flow cytometry (CytoFLEX, Beckman Coulter, Inc.) and binding was assessed by change in PE mean fluorescence intensity (MFI) of the barcoded cell populations.
# [2] = biological target: T4, huFLT3-M227 stably expressed on Ramos cells (human, UniProt P36888 27-993); assay: FACS on cells
# T4 construct: whole, on cells; also called FLT3 Mutant
# Experimental: as §1
# [3] = biological target: T1, huCLL1-K244-Avi-Tev-His; assay: BLI
# Experimental: (§2) Discovered scFvs were analyzed for binding to huCD33-R69-His or huCD33-G69-Fc recombinant proteins (for anti-CD33 scFvs; for CLL-1 scFvs, huCLL1-K244-Avi-Tev-His or huCLL1-Q244-Avi-Tev-His were used; for FLT3, huFLT3-T227-His or huFLT3-M227-Fc were used) using BLI on a ForteBio Octet HTX instrument. Streptavidin-coated biosensors were loaded with biotinylated anti-V5 tag monoclonal antibody for 5 min and were then quenched and blocked with 20 μM amine-PEG2-Biotin for 5 min. scFvs were captured on biosensors from scFv clone periplasmic extracts. huCD33 (or huCLL-1, or huFLT3) proteins were then associated with the captured scFvs for 2 minutes, followed by dissociation with buffer (1×HBST [10 mM HEPES pH 7.4, 150 mM NaCl, 0.05% Tween-20], 1 g/L BSA) for 5 minutes. […] Data was fitted with 1:1 Langmuir equation and off-rate values were reported.
# (§3) Analogous methods were used to assess selectivity of binding of polypeptides to CLL-1 K244 or CLL-1 Q244.
# [4] = biological target: T2, huCLL1-Q244-Avi-Tev-His; assay: BLI
# Experimental: as §2, §3
# 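Wherever result is given: Bio-layer interferometry with scFvs captured on biosensors via anti-V5 antibody, exposed 2 min to CLL-1 K244 or Q244 protein, 5 min dissociation, scored as binding, no binding or ambiguous.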
Binder,FACS geometric mean fold change over Jurkat parental [1],FACS geometric mean fold change over Jurkat parental [2],binding result [3],binding result [4]
"Polypeptide No. 294 (scFv, V domains shown, scFv) VH: QVQLVQSGAEVKKPGASVKVSCKASGYTFTSNNMHWVRQAPGQGLEWMGWINLNSGGTNYAQKFQGRVTMTRDTSTSTVYMELSSLRSEDTAVYYCAKAIDYYYMDVWGKGTTVTVSS VL: DIQMTQSPSSLSASVGDRVTITCRASQGIRNDLGWYQQKPGKAPKLLIYQASSLENGVPSRFSGSGSGTDFTLTISSLQPEDFATYYCQQAYSLPWTFGQGTKLEIKR",10 to 30 fold,10 to 30 fold,,
"Polypeptide No. 50 (scFv, V domains shown, scFv) VH: QVQLVQSGAEVKKPGASVKVSCKASGYTFTDYYMHWVRQAPGQGLEWMGIINPSDGSTTYAQSFQGRVTMTRDTSTSTVYMELSSLRSEDTAVYYCARDELPDSSGWYGYFQHWGQGTLVTVSS VL: DIQMTQSPSSLSASVGDRVTITCRASQSISSWLAWYQQKPGKAPKLLIYAASSLQSGVPSRFSGSGSGTDFTLTISSLQPEDFATYYCQQSYDIPLTFGGGTKVEIKR",,,binds,no binding
"Polypeptide No. 287 (scFv, V domains shown, scFv) VH: QVQLVQSGAEVKKPGASVKVSCKASGYTFTRHYVHWVRQAPGQGLEWVGIINPSSGSASYAQKFQGRVTMTRDTSTSTVYMELSSLRSEDTAVYYCARDRLRSRFDYWGQGTLVTVSS VL: DIQMTQSPSSLSASVGDRVTITCRASQSISSSLAWYQQKPGKAPKLLIYAASSLQSGVPSRFSGSGSGTDFTLTISSLQPEDFATYYCQQSYTIPPTFGQGTKLEIKR",10 to 30 fold,2 to 10 fold,,
"Polypeptide No. 284 (scFv, V domains shown, scFv) VH: QVQLVQSGAEVKKPGASVKVSCKASGYTFTSYYMHWVRQAPGQGLEWMGVINPSGGSTTYAQKFQGRVTMTRDTSTSTVYMELSSLRSEDTAVYYCARVPGVSPGDYGMDVWGQGTTVTVSS VL: DIQMTQSPSSLSASVGDRVTITCRASHNISTWLAWYQQKPGKAPKLLIYAASSLQSGVPSRFSGSGSGTDFTLTISSLQPEDFATYYCQQSYSTPPTFGQGTRLEIKR",> 30 fold,> 30 fold,,
"Polypeptide No. 270 (scFv, V domains shown, scFv) VH: QVQLVQSGAEVKKPGASVKVSCKASGGTFSSYYMHWVRQAPGQGLEWMGWISAYNGNTNYAQKLQGRVTMTRDTSTSTVYMELSSLRSEDTAVYYCAKDMGYYYDSSGGFDYWGQGTLVTVSS VL: DIQMTQSPSSLSASVGDRVTITCRASQSISSYLNWYQQKPGKAPKLLIYDASNLETGVPSRFSGSGSGTDFTLTISSLQPEDFATYYCQQTYTTPLTFGQGTKVEIKR",10 to 30 fold,10 to 30 fold,,
"Polypeptide No. 290 (scFv, V domains shown, scFv) VH: QVQLVQSGAEVKKPGASVKVSCKASGGTFTSYYMHWVRQAPGQGLEWMGWISAYNGKTDYAQKFQGRVTMTRDTSTSTVYMELSSLRSEDTAVYYCARDQGYYYDSSGAFDIWGQGTLVTVSS VL: DIQMTQSPSSLSASVGDRVTITCRASQSISSYLNWYQQKPGKAPKLLIYDASNLETGVPSRFSGSGSGTDFTLTISSLQPEDFATYYCQQTYSAPPTFGQGTKLEIKR",10 to 30 fold,10 to 30 fold,,
"Polypeptide No. 273 (scFv, V domains shown, scFv) VH: QVQLVQSGAEVKKPGSSVKVSCKASGDTFNSYAVNWVRQAPGQGLEWMGGIIPSFGTPTYAWKFQGRVTITADESTSTAYMELSSLRSEDTAVYYCASVSYGSFDYWGQGTLVTVSS VL: EIVMTQSPATLSVSPGERATLSCRASQSVSSSSLAWYQQKPGQAPRLLIYDASTRASGIPARFSGSGSGTEFTLTISSLQSEDFAVYYCQQYNRLPYTFGQGTKLEIKR",10 to 30 fold,10 to 30 fold,,
"Polypeptide No. 293 (scFv, V domains shown, scFv) VH: QVQLVQSGAEVKKPGSSVKVSCKASGYMFTTPYIHWVRQAPGQGLEWMGVINPISGTTTYAQKFQGRVTITADESTSTAYMELSSLRSEDTAVYYCANDRHYDFWSGYYKEEWEYFQHWGQGTLVTVSS VL: not shown",2 to 10 fold,2 to 10 fold,,
"Polypeptide No. 283 (scFv, V domains shown, scFv) VH: QVQLVQSGAEVKKPGASVKVSCKASGYTFTSYYMDWVRQAPGQGLEWMGRINPSSGSTTYVQKFQGRVTMTRDTSTSTVYMELSSLRSEDTAVYYCARTPSGSYSDFDYWGQGTLVTVSS VL: not shown",> 30 fold,> 30 fold,,
"Polypeptide No. 262 (scFv, V domains shown, scFv) VH: QVQLVQSGAEVKKPGASVKVSCKASGFTFSDYGYYMHWVRQAPGQGLEWMGWMDPSSGHTGYAQRFQGRVTMTRDTSTSTVYMELSSLRSEDTAVYYCAKDIGWGAFDIWGQGTTVTVSS VL: EIVMTQSPATLSVSPGERATLSCRASQRVGNTYLAWYQQKPGQAPRLLIYDVSARASGIPARFSGSGSGTEFTLTISSLQSEDFAVYYCQQYLSPPLTFGGGTKVEIKR",10 to 30 fold,10 to 30 fold,,
"Polypeptide No. 269 (scFv, V domains shown, scFv) VH: QVQLVQSGAEVKKPGASVKVSCKASGGSFSSYALHWVRQAPGQGLEWMGLINPSGGRTSYAQKFQGRVTMTRDTSTSTVYMELSSLRSEDTAVYYCARDEGYATFDYWGQGTLVTVSS VL: EIVMTQSPATLSVSPGERATLSCRASQSISSSYLAWYQQKPGQAPRLLIYDVSARATGIPARFSGSGSGTEFTLTISSLQSEDFAVYYCQQYYSTPLTFGPGTKVDIKR",10 to 30 fold,10 to 30 fold,,
"Polypeptide No. 265 (scFv, V domains shown, scFv) VH: QVQLVQSGAEVKKPGSSVKVSCKASGHTFTSDYMHWVRQAPGQGLEWMGRIIPIFGTADYAQKFQGRVTITADESTSTAYMELSSLRSEDTAVYYCARDDSSGIFDYWGQGTLVTVSS VL: EIVMTQSPATLSVSPGERATLSCRASQSVNSEHLAWYQQKPGQAPRLLIYDTSSRATGIPARFSGSGSGTEFTLTISSLQSEDFAVYYCQQYGSSPVTFGQGTKVEIKR",10 to 30 fold,10 to 30 fold,,
"Polypeptide No. 278 (scFv, V domains shown, scFv) VH: QVQLVQSGAEVKKPGASVKVSCKASGYTFTSYYMHWVRQAPGQGLEWMGIINPSSGSTTYAQKFQGRVTMTRDTSTSTVYMELSSLRSEDTAVYYCARSVGATSAFDIWGQGTMVTVSS VL: not shown",> 30 fold,> 30 fold,,
"Polypeptide No. 87 (scFv, V domains shown, scFv) VH: QVQLVQSGAEVKKPGASVKVSCKASGYSFTNYYIHWVRQAPGQGLEWMGWMNPYTGQTGYAQKFQGRVTMTRDTSTSTVYMELSSLRSEDTAVYYCTTDEETMDFHLWGRGTLVTVSS VL: DIQMTQSPSSLSASVGDRVTITCZASQSISSYLNWYQQKPGKAPKLLIYDASNLETGVPSRFSGSGSGTDFTLTISSLQPEDFATYYCQQANTFPITFGQGTRLEIKR",,,no binding,
"Polypeptide No. 292 (scFv, V domains shown, scFv) VH: QVQLVQSGAEVKKPGASVKVSCKASGYTFTSYGISWVRQAPGQGLEWMGWINPNSGGTNYAQKFQGRVTMTRDTSTSTVYMELSSLRSEDTAVYYCARQGGLRDFDYWGQGTLVTVSS VL: DIQMTQSPSSLSASVGDRVTITCRASQSISTYVNWYQQKPGKAPKLLIYDTSSLQSGVPSRFSGSGSGTDFTLTISSLQPEDFATYYCQQSFITPPTFGQGTKLEIKR",2 to 10 fold,2 to 10 fold,,
"Polypeptide No. 61 (scFv, V domains shown, scFv) VH: QVQLVQSGAEVKKPGASVKVSCKASGYTFTNYYMHWVRQAPGQGLEWMGIINPSGGSTSYAQKFQGRVTMTRDTSTSTVYMELSSLRSEDTAVYYCARAEWDILTGYYIDYWGQGTLVTVSS VL: DIQMTQSPSSLSASVGDRVTITCQASQDISNYLNWYQQKPGKAPKLLIYGASSLQSGVPSRFSGSGSGTDFTLTISSLQPEDFATYYCQQHNSYPWTFGQGTKVEIKR",,,binds,
"Polypeptide No. 288 (scFv, V domains shown, scFv) VH: QVQLVQSGAEVKKPGASVKVSCKASGYTFTTYDINWVRQAPGQGLEWMGWMNPSSGNSGFAQQFQGRVTMTRDTSTSTVYMELSSLRSEDTAVYYCAREDYYDSSGYYNWGQGTLVTVSS VL: DIQMTQSPSSLSASVGDRVTITCRASQGISNNLNWYQQKPGKAPKLLIYKASTLESGVPSRFSGSGSGTDFTLTISSLQPEDFATYYCQQSYSTPITFGQGTKVEIKR",2 to 10 fold,10 to 30 fold,,
"Polypeptide No. 280 (scFv, V domains shown, scFv) VH: QVQLVQSGAEVKKPGASVKVSCKASGYTFTRYYMHWVRQAPGQGLEWMGIINPSGGSTSYAQKFQGRVTMTRDTSTSTVYMELSSLRSEDTAVYYCARGETRSYAPYGMDVWGQGTTVTVSS VL: DIQMTQSPSSLSASVGDRVTITCQASQDISNYLNWYQQKPGKAPKLLIYQASNKDTGVPSRFSGSGSGTDFTLTISSLQPEDFATYYCQQSYSTPPTFGQGTKLEIKR",> 30 fold,> 30 fold,,

# Reference: US20240101668A1 (WUGEN, published 2024)
